Among the data in patent publication US20140141019A1 are IC50 values, retold here.

In this test the target is HER3 receptor on cells (HER3-transfected NIH 3T3 fibroblasts; SKBR3 cells; BxPC3 cells) (human) (UniProt P21860). Description: flow cytometry competition on SKBR3 cells; HRG varied against anti-HER3 antibody (H4B-121, control antibody D) at its 50% maximal binding concentration. For orientation: Flow cytometry measures light scatter and fluorescence of single cells or particles in a stream.

In general, IC50 refers to the midpoint of a concentration-inhibition curve. Higher therefore signals weaker potency in that assay.

With “heregulin (from UniProt Q02297 177-241) (ligand)”, the IC50 worked out at 2.5 nM. This lies in the single-digit nanomolar range.
